Source: patent US20200361992A1 (PROTAGONIST THERAPEUTICS, published 2020)
Positions of bridges follow the written chain, without caps; N, C: chain ends. Non-standard residues stand in square brackets, D forms with d. Groups on a side chain read outwards from the residue. *: point of attachment. PEG12 = NCCOCCOCCOCCOCCOCCOCCOCCOCCOCCOCCOCCOCCC(=O)O; Phe(4-tBu) = CC(C)(C)c1ccc(C[C@H](N)C(=O)O)cc1; Dip = N[C@H](C(=O)O)C(c1ccccc1)c1ccccc1; Palmitoyl = CCCCCCCCCCCCCCCC(=O)*; β3hF = N[C@H](CC(=O)O)Cc1ccccc1; Isovaleryl = CC(C)CC(=O)*; dDap = NC[C@@H](N)C(=O)O; Dap = NC[C@H](N)C(=O)O; Npc = nipecotic acid

T1: human ferroportin (SLC40A1) fused with GFP, stably expressed in HEK293 cells (human, UniProt Q9NP59 1-571)
T1 sequence (looked up): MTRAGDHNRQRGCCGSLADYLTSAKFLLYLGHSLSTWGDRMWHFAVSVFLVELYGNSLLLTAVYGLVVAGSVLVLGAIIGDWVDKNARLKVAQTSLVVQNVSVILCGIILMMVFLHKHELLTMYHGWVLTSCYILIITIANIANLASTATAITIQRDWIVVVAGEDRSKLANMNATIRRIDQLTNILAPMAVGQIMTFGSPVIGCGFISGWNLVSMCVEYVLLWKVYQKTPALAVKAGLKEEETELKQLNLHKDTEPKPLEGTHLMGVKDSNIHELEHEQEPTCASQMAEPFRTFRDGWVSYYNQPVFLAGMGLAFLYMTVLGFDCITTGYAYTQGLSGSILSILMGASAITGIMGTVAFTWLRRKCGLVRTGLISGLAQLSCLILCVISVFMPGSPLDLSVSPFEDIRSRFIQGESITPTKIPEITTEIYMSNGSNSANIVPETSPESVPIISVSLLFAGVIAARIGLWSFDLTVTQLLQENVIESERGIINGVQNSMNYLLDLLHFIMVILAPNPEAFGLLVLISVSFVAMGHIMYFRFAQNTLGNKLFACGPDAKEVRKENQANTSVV


Target: T1, human ferroportin (SLC40A1) fused with …
Assay: cell-based or functional assay

| Binder | FPN IC50 |
| --- | --- |
| Isovaleryl-DTH[Dip]PCI[β3hF]K([PEG12-Palmitoyl])[dK]C-NH2 (disulfide 6-11 (inferred)) [Compd ID 148] | 0.012 µM |
| DTHXPCIKXKKC (Isovaleric acid-DTH-[Dpa]-PCI-[(D)Lys]-[b-hPhe]-[Lys(Ac)]-[(D)Lys]-C-NH2) [Compd ID 152] | 0.146 µM |
| Isovaleryl-DTH[Dip][Npc]CI[dK][Phe(4-tBu)]K([PEG12-Palmitoyl])[dK]C-NH2 (disulfide 6-12 (inferred)) [Compd ID 149] | 0.017 µM |
| DTHXPCIKXKXX (Isovaleric acid-DTH-[Dpa]-PCI-[(D)Lys]-[b-hPhe]-[Lys(Ahx-Palm)]-[Dap]-[N-Me-Cys]-NH2) [Compd ID 151] | 0.0285 µM |
| Isovaleryl-DTH[Dip][Npc]CI[dK][Phe(4-tBu)]K([PEG12-Palmitoyl])C[dK]-NH2 (disulfide 6-11 (inferred)) [Compd ID 150] | 0.022 µM |
| DTHXPCIKXKKC (Isovaleric acid-DTH-[Dpa]-PCI-[(D)Lys]-[b-hPhe]-[Lys(Peg11-Octane)]-[(D)Lys]-C-NH2) [Compd ID 155] | 0.279 µM |
| Isovaleryl-DTH[Dip]PCII[β3hF]K([PEG12-Palmitoyl])[dK]C-NH2 (disulfide 6-12 (inferred)) [Compd ID 147] | 0.024 µM |
| DTHXPCIKXKKC (Isovaleric acid-DTH-[Dpa]-PCI-[(D)Lys-Peg11*]-[b-hPhe]-[Lys(Peg11-Palm)]-[(D)Lys-Peg11*]-C-NH2 (*PEG11-OMe)) [Compd ID 153] | 0.019 µM |
| DTHFPCIXFKC (Isovaleric acid-DTHFPCI-[Orn]-[Phe]-Lys[PEG11-Palm]-C-NH2) [Compd ID 11] | 0.004 µM |
| DTHXPCIKXKKC (Isovaleric acid-DTH-[Dpa]-PCI-[(D)Lys]-[b-hPhe]-[Lys-Peg11]-[(D)Lys]-C-NH2) [Compd ID 154] | 0.404 µM |
| Isovaleryl-DTH[Dip]PCI[dA][β3hF]K([PEG12-Palmitoyl])[dK]C-NH2 (disulfide 6-12 (inferred)) [Compd ID 146] | 0.011 µM |

Second part, the binder after the results:

| FPN IC50 | Binder |
| --- | --- |
| 0.006 µM | DTHXPCIKXKKC (Isovaleric acid-DTH-[Dpa]-PCI-[(D)Lys-Peg11*]-[b-hPhe]-[Lys(Ahx-Palm)]-[(D)Lys-Peg11*]-C-NH2 (*PEG11-OMe)) [Compd ID 166] |
| 0.125 µM | DTHXPCIKXKKC (Isovaleric acid-DTH-[Dpa]-PCI-[(D)Lys]-[b-hPhe]-[Lys(Peg11-Lauryl)]-[(D)Lys]-C-NH2) [Compd ID 156] |
| 0.007 µM | Isovaleryl-DTH[Dip]PCI[dK][β3hF][Dap]([dDap-Palmitoyl])C-NH2 (disulfide 6-11 (inferred)) [Compd ID 163] |
| 0.008 µM | Isovaleryl-DTH[Dip]PCI[dK][β3hF][Dap]([Dap-Palmitoyl])C-NH2 (disulfide 6-11 (inferred)) [Compd ID 162] |
| 0.006 µM | DTHXPCIKXKKC (Isovaleric acid-DTH-[Dpa]-PCI-[(D)Lys]-[b-hPhe]-[Lys(IsoGlu-Palm)]-[(D)Lys]-C-NH2) [Compd ID 158] |
| 0.01 µM | DTHXPCIKXKC (Isovaleric acid-DTH-[Dpa]-PCI-[(D)Lys]-[b-hPhe]-[Lys(dDap-Palm)]-C-NH2) [Compd ID 161] |
| 0.03 µM | DTHFPCIKFKPRSKGCK (Isovaleric acid-DTHFPCIKF-Lys[PEG11-Palm]-PRSKGCK-NH2) [Ref. Compd 1] |
| 0.004 µM | DTHXPCIKXKC (Isovaleric acid-DTH-[Dpa]-PCI-[(D)Lys]-[b-hPhe]-[Lys(Dap-Palm)]-C-NH2) [Compd ID 160] |
| 0.006 µM | DTHXPCIKXKKC (Isovaleric acid-DTH-[Dpa]-PCI-[(D)Lys]-[b-hPhe]-[Lys(Ahx-Palm)]-[(D)Lys]-C-NH2) [Compd ID 165] |
| 0.004 µM | DTHXPCIKXKKC (Isovaleric acid-DTH-[Dpa]-PCI-[(D)Lys-Ac]-[b-hPhe]-[Lys(Peg11-Palm)]-[(D)Lys-Ac]-C-NH2) [Compd ID 159] |
| 0.347 µM | DTHXPCIKXKKC (Isovaleric acid-DTH-[Dpa]-PCI-[(D)Lys]-[b-hPhe]-[Lys-Peg11*]-[(D)Lys]-C-NH2 (*PEG11-OMe)) [Compd ID 157] |
| 0.006 µM | Isovaleryl-DTH[Dip]PCI[dK][β3hF][Dap]([dDap-Palmitoyl])C-NH2 (disulfide 6-11 (inferred)) [Compd ID 164] |
